Source: publication PMC11239674
Substitutions are numbered along the chain they refer to.

Assays:
Assay in all cases: MST
[1] = tested on: AtGRP7short (Arabidopsis thaliana); conditions: MST: 25 mM Tris-HCl pH 8.0, 150 mM NaCl, 1 mM DTT, 0.1 mg/ml BSA; 20 nM Cy5-RNA; protein titrated from 50-75 uM; about 2 min incubation; temperature not stated
[2] = tested on: AtGRP7 (Arabidopsis thaliana); conditions: MST: 25 mM Tris-HCl pH 8.0, 150 mM NaCl, 1 mM DTT, 0.1 mg/ml BSA; 20 nM Cy5-RNA; protein titrated from 50-75 uM; about 2 min incubation; temperature not stated
[3] = molecular target: T1, AtGRP7 (Arabidopsis thaliana) (UniProt Q03250); conditions: 25 mM Tris-HCl pH 8.0, 150 mM NaCl (150 mM LiCl for Sc1 LiCl), 1 mM DTT, 0.1 mg/ml BSA; 20 nM Cy5-RNA; about 2 min incubation; temperature not stated; low values mean tight binding
T1 sequence: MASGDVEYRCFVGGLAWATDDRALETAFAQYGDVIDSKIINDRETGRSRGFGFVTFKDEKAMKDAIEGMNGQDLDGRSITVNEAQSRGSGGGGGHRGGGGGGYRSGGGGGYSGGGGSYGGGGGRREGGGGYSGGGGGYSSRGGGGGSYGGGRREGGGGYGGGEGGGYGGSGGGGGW

[4] = molecular target: T2, eYFP-AtGRP7RGG (Arabidopsis thaliana) (UniProt Q03250); conditions: 25 mM Tris-HCl pH 8.0, 150 mM NaCl (150 mM LiCl for Sc1 LiCl), 1 mM DTT, 0.1 mg/ml BSA; 20 nM Cy5-RNA; about 2 min incubation; temperature not stated; low values mean tight binding
T2 sequence: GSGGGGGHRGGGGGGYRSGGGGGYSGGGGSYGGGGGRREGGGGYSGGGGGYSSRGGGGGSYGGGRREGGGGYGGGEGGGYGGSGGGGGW

BnGRP7 (Brassica napus) [5] = molecular target: T3, BnGRP7 (Brassica napus) (UniProt A0A078J5Z4); conditions: 25 mM Tris-HCl pH 8.0, 150 mM NaCl (150 mM LiCl for Sc1 LiCl), 1 mM DTT, 0.1 mg/ml BSA; 20 nM Cy5-RNA; about 2 min incubation; temperature not stated; low values mean tight binding
T3 sequence: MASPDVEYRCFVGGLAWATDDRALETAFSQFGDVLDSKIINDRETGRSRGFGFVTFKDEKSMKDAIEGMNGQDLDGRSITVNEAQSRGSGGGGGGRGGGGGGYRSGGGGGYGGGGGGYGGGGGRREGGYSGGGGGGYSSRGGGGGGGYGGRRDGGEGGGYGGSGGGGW

[6] = molecular target: T4, AtGRP7YtoG Y103G;Y111G;Y118G;Y131G;Y138G;Y148G;Y159G;Y167G (Arabidopsis thaliana) (UniProt Q03250); conditions: 25 mM Tris-HCl pH 8.0, 150 mM NaCl (150 mM LiCl for Sc1 LiCl), 1 mM DTT, 0.1 mg/ml BSA; 20 nM Cy5-RNA; about 2 min incubation; temperature not stated; low values mean tight binding
T4 sequence: T1 sequence with Y103G, Y111G, Y118G, Y131G, Y138G, Y148G, Y159G, Y167G

[7] = molecular target: T5, AtGRP7StoE S132E;S139E (Arabidopsis thaliana) (UniProt Q03250); conditions: 25 mM Tris-HCl pH 8.0, 150 mM NaCl (150 mM LiCl for Sc1 LiCl), 1 mM DTT, 0.1 mg/ml BSA; 20 nM Cy5-RNA; about 2 min incubation; temperature not stated; low values mean tight binding
T5 sequence: T1 sequence with S132E, S139E

[8] = molecular target: T6, AtGRP7YtoE Y103E;Y111E;Y118E;Y131E;Y138E;Y148E;Y159E;Y167E (Arabidopsis thaliana) (UniProt Q03250); conditions: 25 mM Tris-HCl pH 8.0, 150 mM NaCl (150 mM LiCl for Sc1 LiCl), 1 mM DTT, 0.1 mg/ml BSA; 20 nM Cy5-RNA; about 2 min incubation; temperature not stated; low values mean tight binding
T6 sequence: T1 sequence with Y103E, Y111E, Y118E, Y131E, Y138E, Y148E, Y159E, Y167E

[9] = molecular target: T7, AtGRP7StoG S132G;S139G (Arabidopsis thaliana) (UniProt Q03250); conditions: 25 mM Tris-HCl pH 8.0, 150 mM NaCl (150 mM LiCl for Sc1 LiCl), 1 mM DTT, 0.1 mg/ml BSA; 20 nM Cy5-RNA; about 2 min incubation; temperature not stated; low values mean tight binding
T7 sequence: T1 sequence with S132G, S139G

[10] = molecular target: T8, AtBnGRP7 (Arabidopsis thaliana / Brassica napus chimera) (UniProt Q03250); conditions: 25 mM Tris-HCl pH 8.0, 150 mM NaCl (150 mM LiCl for Sc1 LiCl), 1 mM DTT, 0.1 mg/ml BSA; 20 nM Cy5-RNA; about 2 min incubation; temperature not stated; low values mean tight binding
T8 sequence: T3 sequence with P4G, S29A, F31Y, L35I, S61A

[11] = molecular target: T9, AtGRP7short (Arabidopsis thaliana) (UniProt Q03250); conditions: 25 mM Tris-HCl pH 8.0, 150 mM NaCl (150 mM LiCl for Sc1 LiCl), 1 mM DTT, 0.1 mg/ml BSA; 20 nM Cy5-RNA; about 2 min incubation; temperature not stated; low values mean tight binding
T9 sequence: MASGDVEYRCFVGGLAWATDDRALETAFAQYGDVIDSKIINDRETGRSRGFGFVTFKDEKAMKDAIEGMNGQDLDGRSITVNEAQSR

[12] = tested on: eYFP-AtGRP7RGG (Arabidopsis thaliana); conditions: MST: 25 mM Tris-HCl pH 8.0, 150 mM NaCl, 1 mM DTT, 0.1 mg/ml BSA; 20 nM Cy5-RNA; protein titrated from 50-75 uM; about 2 min incubation; temperature not stated
BnGRP7 (Brassica napus) [13] = conditions: MST: 25 mM Tris-HCl pH 8.0, 150 mM NaCl, 1 mM DTT, 0.1 mg/ml BSA; 20 nM Cy5-RNA; protein titrated from 50-75 uM; about 2 min incubation; temperature not stated
[14] = molecular target: T1, AtGRP7 (Arabidopsis thaliana); conditions: 25 mM Tris-HCl pH 8.0, 150 mM NaCl (150 mM LiCl for Sc1 LiCl), 1 mM DTT, 0.1 mg/ml BSA; 20 nM Cy5-RNA; about 2 min incubation; temperature not stated; low values mean tight binding; remark: listed apart in the source
[15] = tested on: AtGRP7YtoG (Arabidopsis thaliana); conditions: MST: 25 mM Tris-HCl pH 8.0, 150 mM NaCl, 1 mM DTT, 0.1 mg/ml BSA; 20 nM Cy5-RNA; protein titrated from 50-75 uM; about 2 min incubation; temperature not stated
[16] = tested on: AtBnGRP7 (Arabidopsis thaliana / Brassica napus chimera); conditions: MST: 25 mM Tris-HCl pH 8.0, 150 mM NaCl, 1 mM DTT, 0.1 mg/ml BSA; 20 nM Cy5-RNA; protein titrated from 50-75 uM; about 2 min incubation; temperature not stated
[17] = tested on: AtGRP7StoE (Arabidopsis thaliana); conditions: MST: 25 mM Tris-HCl pH 8.0, 150 mM NaCl, 1 mM DTT, 0.1 mg/ml BSA; 20 nM Cy5-RNA; protein titrated from 50-75 uM; about 2 min incubation; temperature not stated
[18] = tested on: AtGRP7StoG (Arabidopsis thaliana); conditions: MST: 25 mM Tris-HCl pH 8.0, 150 mM NaCl, 1 mM DTT, 0.1 mg/ml BSA; 20 nM Cy5-RNA; protein titrated from 50-75 uM; about 2 min incubation; temperature not stated

## BnPARCL CDS RNA
[1]
  Kd: 4070 nM
[2]
  Kd: 99.7 nM

## GGAUGGCGUCCGGUGAUGUUGAGUAUCGGUGCUUCGUUGGAGGUCUAGCAUGGGCCACUGAUGACAGAGCUCUUGAGACUGCCUUCGCUCAAUACGGCGACGUUAUUGAUUCCAAGAUCAUUAACGAUCGUGAGACUGGAAGAUCAAGGGGAUUCGGAUUCGUCACCUUCAAGGAUGAGAAAGCCAUGAAGGAUGCGAUUGAGGGAAUGAACGGACAAGAUCUCGAUGGCCGUAGCAUCACUGUUAACGAGGCUCAGUCACGAGGAAGCGGUGGCGGCGGAGGCCACCGUGGAGGUGGUGGCGGUGGAUACCGCAGCGGCGGUGGUGGAGGUUACUCCGGUGGAGGUGGUAGCUACGGAGGUGGCGGCGGUAGACGCGAGGGUGGAGGAGGAUACAGCGGCGGCGGCGGCGGUUACUCCUCAAGAGGUGGUGGUGGCGGAAGCUACGGUGGUGGAAGACGUGAGGGAGGAGGAGGAUACGGUGGUGGUGAAGGAGGAGGUUACGGAGGAAGCGGUGGUGGUGGAGGAUGGUAA [AtGRP7]
[3]
  Kd: 182 nM
[4]
  Kd: 1520 nM
BnGRP7 (Brassica napus) [5]
  Kd: 3720 nM
[6]
  Kd: 7390 nM
[7]
  Kd: 536 nM
[8]
  Kd: 5400 nM
[9]
  Kd: 1170 nM
[10]
  Kd: 107 nM

## AUUUUGUUCUGGUUCUGCUUUAGAUUUGAUGU [AtGRP7 3'UTR fragment (7-UTR-WT, 32 nt)]
[3]
  Kd: 158 nM
[4]
  Kd: 31 nM
BnGRP7 (Brassica napus) [5]
  Kd: 17 nM
[6]
  Kd: 356 nM
[7]
  Kd: 72 nM
[8]
  Kd: 701 nM
[9]
  Kd: 52 nM
[10]
  Kd: 18 nM
[11]
  Kd: 12200 nM

## AtGRP7 3'UTR fragment (7-UTR-WT)
[12]
  Kd: 31 nM
[2]
  Kd: 160 nM

## miR164
[1]
  Kd: 5930 nM
[2]
  Kd: 42 nM
BnGRP7 (Brassica napus) [13]
  Kd: 21 nM

## GCUGCGGUGUGGAAGGAGUGGUCGGGUUGCGCAGCG [Sc1 G-quadruplex RNA]
[3]
  Kd: 6900 nM
[14]
  Kd: 463 nM

## AtCOR15A pre-mRNA
[15]
  Kd: 3750 nM
[16]
  Kd: 741 nM
[2]
  Kd: 150 nM
BnGRP7 (Brassica napus) [13]
  Kd: 323 nM
[17]
  Kd: 738 nM
[18]
  Kd: 2230 nM

## AtGRP7 CDS RNA
[12]
  Kd: 2100 nM
[2]
  Kd: 182 nM
